Experimental data as given in patent US7709240B2, “AMP deaminase originating streptomyces and utilization thereof” (Amano Enzyme Inc., priority 2004, dated 2010).
Entries after “also recorded” stand apart in the source; their conditions may differ.

What was measured:
[1] = pH stability of purified enzyme; type: physicochemical; conditions: pH from about 6.5 to about 8.0, 30° C. for 30 minutes; treatment at pH 7.0 = reference
Protocol: Next, pH stability of the enzyme was examined by the following procedure. An enzyme solution (0.15 ml) containing 2.8 μg protein (total amount) was adjusted to pH 3 to 8 by using McIlvaine buffer solution, and to pH 8 to 10 by using Atkins-pantin buffer solution. The solution was then allowed to stand at 30° C. for 30 minutes. Thereafter, the residual activity (percent with respect to the enzyme activity in the case where the treatment was carried out in pH 7.0) was measured. It is shown that in the range of pH from about 6.0 to about 8.5, relatively high activity is maintained, and in the range of pH from about 6.5 to about 8.0, about 80% or more of activity is maintained.

[2] = Relation between pH and activity of purified enzyme; type: biochemical
Protocol: By using the decrease of OD265 at the time of reaction as an index, the enzyme activity was measured. To 1.5 ml of solution obtained by mixing 0.017M 5′ AMP-2Na and 1/15M phosphate buffer solution (pH 5.6) at the ratio of 1:2, 0.5 ml of sample solution was added so as to obtain a reaction solution, which was reacted at 37° C. for 15 minutes. Then, 2% perchloric acid solution was added so as to stop the reaction and 100 μl of the solution was taken out. Water was added to the solution so that the total amount was 5 ml. Then, OD265 was measured. The value similarly measured at reaction time of 0 minute was defined as a blank. Under the above-mentioned conditions, a case where an absorbance difference is reduced by 0.001 during 60 minutes was defined as one unit.
Next, the relation between pH and activity of the obtained purified enzyme was examined. […] In the wide range of pH from about 4.5 to about 8.5, relatively high activity is observed. In the range of pH from about 5.0 to about 8.0, 70% or more of the reaction property is observed. Furthermore, it is shown that even in the case where pH is 9.0, about 40% of reactivity is obtained.

[3] = Substrate specificity; type: biochemical; conditions: activity with respect to 5′ AMP = 100%
From the text: (§1) It is reported that adenosine deaminase derived from Streptomyces aureofaciens has a wide range of substrate property, for example, catalytic ability of AMP (non-patent document 2). Taken this into consideration, in order to confirm whether deaminase derived from Streptomyces murinus obtained in the above-mentioned method is AMP-deaminase or adenosine-deaminase, the substrate specificity was investigated. Note here that the relative activity, when the enzyme activity with respect to 5′ AMP is defined as 100% is represented. […] In particular, the enzyme acted on 5′dAMP, ADP and ATP favorably. From the above-mentioned results, it was confirmed that the deaminase derived from Streptomyces murinus obtained by the above-mentioned method was AMP deaminase. Furthermore, it was determined that the enzyme was able to be employed preferably in a reaction using 5′dAMP, ADP and ATP as a substrate.
In order to determine whether the deaminase derived from transformant (SAD-1) obtained as mentioned above was AMP deaminase or Adenosine-deaminase, the substrate specificity was investigated. Note here that relative activities when the enzyme activity with respect to 5′ AMP was defined as 100% are represented. […] In particular, the enzyme acted on 5′-dAMP, ADP and ATP favorably. From the above-mentioned results, it was confirmed that deaminase derived from transformant (SAD-1) was similar to AMP deaminase derived from Streptomyces murinus and it was AMP deaminase. Furthermore, it was determined that the enzyme can be preferably used with respect to the reaction using 5′-dAMP, ADP and ATP as a substrate.

[4] = Feasibility test 2: nuclease and deaminase treatment of yeast lysate carried out simultaneously; conditions: simultaneously with nuclease, 70° C., pH5, 3 hours or 5 hours
Protocol: In test 2, treatment with nuclease and treatment with deaminase were carried out simultaneously. Specifically, the treatment was carried out by the following procedure and the IMP conversion rate was calculated. Firstly, nuclease “AMANO” G (Amano Enzyme Inc., 0.1% w/w yeast solid) and “Deamizyme (50,000 units) (trade name of Amano Enzyme Inc., 0.01 to 0.04% w/w yeast solid)” that is an AMP deaminase agent derived from the test enzyme (Aspergillus melleus) or a crude enzyme solution prepared by using Streptomyces murinus were added to yeast lysate (YL-15, 0.2%) and they were reacted with yeast lysate under the conditions at a temperature of 70° C. and pH5 for a predetermined time (3 hours or 5 hours). Then, the reacted product was heat treated, and then subjected to HPLC analysis. Note here that added amount of AMP deaminase derived from Streptomyces murinus was set so that the activity value thereof became the same as that of “Deamizyme (50,000 u/mg product)” (trade name, Amano Enzyme Inc.)

[5] = Contaminated phosphatase activity; type: biochemical; conditions: 37° C., pH 5.6
Protocol: To 1.5 ml of solution obtained by mixing 0.025M 5′IMP-2Na and 0.036M barbital sodium-hydrochloric acid buffer solution (pH 5.6) at the ratio of 1:2, 0.5 ml of sample solution was added so as to obtain a reaction solution, which was reacted at 37° C. for 30 minutes. After the reaction was completed, 200 μl of the solution was taken out, and 5 ml of 6% perchloric acid solution was added so as to stop the reaction. Amidol solution (0.05M, 0.25 ml) was added and mixed, followed by adding and mixing 0.25 ml of 0.067 M ammonium molybdate solution, and further adding and mixing 0.25 ml of water, which was allowed to stand in flowing water for 15 minutes. Then, OD265 was measured. A value similarly measured at the reaction time of 0 minute was defined as a blank. Under the above-mentioned conditions, a case where an absorbance difference is reduced by 0.001 during 30 minutes was defined as one unit.
The contaminated phosphatase activities concerning Aspergillus melleus and Streptomyces murinus were measured. In Aspergillus melleus, the contamination activity was observed. On the other hand, in Streptomyces murinus, the phosphatase activity was not observed.

[6] = Substrate specificity; type: biochemical
From the text: as §1, with “From the above-mentioned results, it was confirmed that the deaminase derived from Streptomyces murinus obtained by the above-mentioned method was AMP deaminase.” left out
Then, in the genus Streptomyces in the stored strains of Amano Enzyme Inc., screening of AMP deaminase producing strain was carried out. […] Furthermore, the residual activity was measured when the activity obtained when treatment was not carried out was defined as 100%. […]
In order to determine whether the deaminase derived from transformant (SAD-1) obtained as mentioned above was AMP deaminase or Adenosine-deaminase, the substrate specificity was investigated. […] Furthermore, it was determined that the enzyme can be preferably used with respect to the reaction using 5′-dAMP, ADP and ATP as a substrate.

B1: AMP deaminase derived from Streptomyces murinus: thermostable AMP deaminase enzyme produced by Streptomyces murinus IFO14802; amino acid sequence SEQ ID NO: 1 (protein, listed as Streptomyces murinus)
chain: APPPRQATAAEARTDAYLRSVKDRPAALRAFFRQLPKGGDLHNHLSGAVNTDYLIELAAEDGLCIDATMTAVPSPCGPGTRPAADARTDRAFHDAIVRAWSMQDFPPDENGHDHFFDTFGKFGEVTWRHRGKLLAQVADTVVANNQSYLETMVTPASDGAKQLADQVGWDADLTALHRKLAAGGKLDKLVADARKEADDGDAEFRATEHCGTAKARPACGLTVRWISQASRGSSPVRVFTQLDLGMRLAEADSRFVAVNLVQPEDWDSSLENYSLQMRMVGYLRTVYPKAHVTLHAGELWPGLVKPEALKFHIAEAVDIAHTQRVGHGVDLVHEDNWQRTARTMAARQIAVEVPFSSNAQILGVKGAEHPFTTYRRYGVPVVLATDDPGVSRIDISHEYQYAAATYGLGYPELKDLARASLQYAFLPGASLWQGNPTAQGYHPVAACRAERPGQPVHSAACRRLLDGSARARLEWRQEAAFAAFERAHARG
residual activity [1]: ≥ 80%
optimum pH ([2]; McIlvaine buffer solution): around 5.6
relative activity (reactivity) ([2]; pH 9.0, activity at pH 5.6 = 100%): about 40%
relative activity (reaction property) ([2]; pH from about 5.0 to about 8.0, activity at pH 5.6 = 100%): ≥ 70%
action on substrate 2′AMP [3]: did not act on
action on substrate 3′5′-cyclic AMP (cAMP) [3]: also acted on
action on substrate 3′AMP [3]: also acted on
action on substrate 5′ AMP [3]: most favorably
action on substrate 5′dAMP [3]: favorably
action on substrate ADP [3]: favorably
action on substrate ATP [3]: favorably
action on substrate adenine [3]: did not act on
IMP production [4]: IMP was produced
contaminated phosphatase activity [5]: not observed; also recorded: not detected
action on adenosine as fraction of the action on 5′-AMP [6]: 1/10
action on substrate Adenosine ([6]; activity with respect to 5′ AMP = 100%): also acted on and weak
